From PMC7082078 (Cell reports, 2020) come the findings set out here.

Test in all cases: AUC
For data set [1], the target named is Xenopus pcdh8.1 full ectodomain (EC1–EC6) (Xenopus).
Data set [2] deals with Xenopus pcdh8.2 (PAPC) full ectodomain (EC1–EC6) (Xenopus).
In data set [3] the target is human pcdh7 EC1–EC4 fragment (human).
Data set [4] addresses human pcdh8 EC5–EC6 fragment (human).
Data set [5] deals with human pcdh9 EC1–EC4 fragment (human).
Data set [6] has as its target human pcdh10 EC1–EC3 fragment (human).
Data set [7] deals with human pcdh10 EC1–EC4 fragment (human).
Data set [8] addresses human pcdh10 EC5–EC6 fragment (human).
In data set [9] the target is human pcdh10 full ectodomain (EC1–EC6) (human).
Data set [10] addresses human pcdh11Y full ectodomain (EC1–EC7) (human).
The target of data set [11] is human pcdh12 full ectodomain fragment (EC1–EC6) (human).
Data set [12] has as its target human pcdh17 full ectodomain (EC1–EC6) (human).
The target of data set [13] is human pcdh18 full ectodomain (EC1–EC6) (human).
For data set [14], the target named is mouse pcdh7 EC1–EC4 fragment (mouse).
Data set [15] addresses mouse pcdh7 full ectodomain (EC1–EC7) (mouse).
The data set “AUC” concerns the molecule itself.

As a reminder, the Kd is the equilibrium constant for the complex coming apart. What is called stoichiometry N is the number of molecules, sites or subunits per partner or assembly. Turning to “Xenopus pcdh8.1 full ectodomain (EC1–EC6) (domain or fragment)”, in data set [1], the Kd was found to be 3.5 µM and the stoichiometry N was determined as 2.

As for “Xenopus pcdh8.2 (PAPC) full ectodomain (EC1–EC6) (domain or fragment)”, the stoichiometry N in data set [2] was determined as 2.

In data set [3], “human pcdh7 EC1–EC4 fragment (domain or fragment)” displayed a Kd of 2.7 µM and a stoichiometry N of 2.

As to “human pcdh8 EC5–EC6 fragment (domain or fragment)”, the dissociation constant (Kd) in [4] was more than 1000 µM.

In data set [5], “human pcdh9 EC1–EC4 fragment (domain or fragment)” registered an equilibrium dissociation constant (Kd) of 2 µM and a stoichiometry N of 2.

In data set [6], “human pcdh10 EC1–EC3 fragment (domain or fragment)” registered a Kd of 280 µM and a stoichiometry N of 2.

Consider “human pcdh10 EC1–EC4 fragment (domain or fragment)”, for which, in [7], the Kd is 0.68 µM and the stoichiometry N came to 2.

“human pcdh10 EC5–EC6 fragment (domain or fragment)” gave a Kd in data set [8] of more than 1000 µM.

Consider “human pcdh10 full ectodomain (EC1–EC6) (domain or fragment)”, for which, in data set [9], the Kd was found to be 3.6 µM and the stoichiometry N came to 2.

In [10], “human pcdh11Y full ectodomain (EC1–EC7) (domain or fragment)” had a dissociation constant (Kd) of 7.8 µM and a stoichiometry N of 2.

In turn, “human pcdh12 full ectodomain fragment (EC1–EC6) (domain or fragment)” yielded a stoichiometry N in [11] of 2.

For the molecule “human pcdh17 full ectodomain (EC1–EC6) (domain or fragment)”, in data set [12], the Kd came out at 4.8 µM and the stoichiometry N was determined as 2.

Turning to “human pcdh18 full ectodomain (EC1–EC6) (domain or fragment)”, in [13], the Kd turned out to be 2.7 µM and the stoichiometry N worked out at 2.

In [14], “mouse pcdh7 EC1–EC4 fragment (domain or fragment)” showed a Kd of 4.1 µM and a stoichiometry N of 2.

As for “mouse pcdh7 full ectodomain (EC1–EC7) (domain or fragment)”, in [15], the Kd was determined as 8.2 µM and the stoichiometry N was 2.

B1: human pcdh9 full ectodomain (EC1–EC7) (domain or fragment)
chain: QELIYTIREELPENVPIGNIPKDLNISHINAATGTSASLVYRLVSKAGDAPLVKVSSSTGEIFTTSNRIDREKLCAGASYAEENECFFELEVVILPNDFFRLIKIKIIVKDTNDNAPMFPSPVINISIPENTLINSRFPIPSATDPDTGFNGVQHYELLNGQSVFGLDIVETPEGEKWPQLIVQQNLDREQKDTYVMKIKVEDGGTPQKSSTAILQVTVSDVNDNRPVFKEGQVEVHIPENAPVGTSVIQLHATDADIGSNAEIRYIFGAQVAPATKRLFALNNTTGLITVQRSLDREETAIHKVTVLASDGSSTPARATVTINVTDVNDNPPNIDLRYIISPINGTVYLSEKDPVNTKIALITVSDKDTDVNGKVICFIEREVPFHLKAVYDNQYLLETSSLLDYEGTKEFSFKIVASDSGKPSLNQTALVRVKLEDENDNPPIFNQPVIELSVSENNRRGLYLTTISATDEDSGKNADIVYQLGPNASFFDLDRKTGVLTASRVFDREEQERFIFTVTARDNGTPPLQSQAAVIVTVLDENDNSPKFTHNHFQFFVSENLPKYSTVGVITVTDADAGENKAVTLSILNDNDNFVLDPYSGVIKSNVSFDREQQSSYTFDVKATDGGQPPRSSTAKVTINVMDVNDNSPVVISPPSNTSFKLVPLSAIPGSVVAEVFAVDVDTGMNAELKYTIVSGNNKGLFRIDPVTGNITLEEKPAPTDVGLHRLVVNISDLGYPKSLHTLVLVFLYVNDTAGNASYIYDLIRRTMETPLDRNIGDSSQPYQNEDYLT
For the molecule B1, in “AUC”, the Kd came to 2.03 µM and the “stoichiometry N” value stood at 2.

B2: human pcdh1 full ectodomain (EC1–EC7) (domain or fragment)
chain: TRVVYKVPEEQPPNTLIGSLAADYGFPDVGHLYKLEVGAPYLRVDGKTGDIFTTETSIDREGLRECQNQLPGDPCILEFEVSITDLVQNGSPRLLEGQIEVQDINDNTPNFASPVITLAIPENTNIGSLFPIPLASDRDAGPNGVASYELQAGPEAQELFGLQVAEDQEEKQPQLIVMGNLDRERWDSYDLTIKVQDGGSPPRASSALLRVTVLDTNDNAPKFERPSYEAELSENSPIGHSVIQVKANDSDQGANAEIEYTFHQAPEVVRRLLRLDRNTGLITVQGPVDREDLSTLRFSVLAKDRGTNPKSARAQVVVTVKDMNDNAPTIEIRGIGLVTHQDGMANISEDVAEETAVALVQVSDRDEGENAAVTCVVAGDVPFQLRQASETGSDSKKKYFLQTTTPLDYEKVKDYTIEIVAVDSGNPPLSSTNSLKVQVVDVNDNAPVFTQSVTEVAFPENNKPGEVIAEITASDADSGSNAELVYSLEPEPAAKGLFTISPETGEIQVKTSLDREQRESYELKVVAADRGSPSLQGTATVLVNVLDCNDNDPKFMLSGYNFSVMENMPALSPVGMVTVIDGDKGENAQVQLSVEQDNGDFVIQNGTGTILSSLSFDREQQSTYTFQLKAVDGGVPPRSAYVGVTINVLDENDNAPYITAPSNTSHKLLTPQTRLGETVSQVAAEDFDSGVNAELIYSIAGGNPYGLFQIGSHSGAITLEKEIERRHHGLHRLVVKVSDRGKPPRYGTALVHLYVNETLANRTLLETLLGHSLDTPLDIDIAGDPEYERSKQRGN
As to B2, in the data set “AUC”, the Kd was 1.2 µM and the “stoichiometry N” value is 2.

B3: human pcdh19 full ectodomain (EC1–EC6) (domain or fragment)
chain: LINLKYSVEEEQRAGTVIANVAKDAREAGFALDPRQASAFRVVSNSAPHLVDINPSSGLLVTKQKIDRDLLCRQSPKCIISLEVMSSSMEICVIKVEIKDLNDNAPSFPAAQIELEISEAASPGTRIPLDSAYDPDSGSFGVQTYELTPNELFGLEIKTRGDGSRFAELVVEKSLDRETQSHYSFRITALDGGDPPRLGTVGLSIKVTDSNDNNPVFSESTYAVSVPENSPPNTPVIRLNASDPDEGTNGQVVYSFYGYVNDRTRELFQIDPHSGLVTVTGALDYEEGHVYELDVQAKDLGPNSIPAHCKVTVSVLDTNDNPPVINLLSVNSELVEVSESAPPGYVIALVRVSDRDSGLNGRVQCRLLGNVPFRLQEYESFSTILVDGRLDREQHDQYNLTIQARDGGVPMLQSAKSFTVLITDENDNHPHFSKPYYQVIVQENNTPGAYLLSVSARDPDLGLNGSVSYQIVPSQVRDMPVFTYVSINPNSGDIYALRSFNHEQTKAFEFKVLAKDGGLPSLQSNATVRVIILDVNDNTPVITAPPLINGTAEVYIPRNSGIGYLVTVVKAEDYDEGENGRVTYDMTEGDRGFFEIDQVNGEVRTTRTFGESSKSSYELIVVAHDHGKTSLSASALVLIYLSPALDAQESMGSVNLS
As for B3, in “AUC”, the Kd amounted to 0.48 µM and the “stoichiometry N” value came to 2.

B4: human pcdh1 EC1–EC4 fragment (domain or fragment)
chain: TRVVYKVPEEQPPNTLIGSLAADYGFPDVGHLYKLEVGAPYLRVDGKTGDIFTTETSIDREGLRECQNQLPGDPCILEFEVSITDLVQNGSPRLLEGQIEVQDINDNTPNFASPVITLAIPENTNIGSLFPIPLASDRDAGPNGVASYELQAGPEAQELFGLQVAEDQEEKQPQLIVMGNLDRERWDSYDLTIKVQDGGSPPRASSALLRVTVLDTNDNAPKFERPSYEAELSENSPIGHSVIQVKANDSDQGANAEIEYTFHQAPEVVRRLLRLDRNTGLITVQGPVDREDLSTLRFSVLAKDRGTNPKSARAQVVVTVKDMNDNAPTIEIRGIGLVTHQDGMANISEDVAEETAVALVQVSDRDEGENAAVTCVVAGDVPFQLRQASETGSDSKKKYFLQTTTPLDYEKVKDYTIEIVAVDSGNPPLSSTNSLKVQVVD
With B4, in “AUC”, the Kd was 0.53 µM and the “stoichiometry N” value is 2.
